Assay results: publication PMC7703470 (Biosensors & Bioelectronics, 2020)

Molecular target: SARS-CoV-2 nucleocapsid protein (NP) (Severe acute respiratory syndrome …, UniProt P0DTC9)
Assay: BLI

B1: 12H8 scFv-Fc antibody (scFv, V domains shown)
VH: AVTLDESGGGLQTPGGGLSLVCKASGFTFSNYGMDWVRQAPGKGLEWVAGIDNDGSGRGYGAAVKGRATISRDNGQSTVRLQLNNLRAEDTATYYCAKSTYGGRGCCDTTDAWGHGTEVIVSS
VL: LTQPSSVSANPGETVKITCSGGGSWYGWFQQKSPGSAPVTVINANTNRPSDIPSRFSGSKSGSTGTLTITGVQADDEAVYFCGSYDSSTDSGIFGAGTTLTVL
  Kd: 1.31 nM

B2: 1G5 scFv-Fc antibody (scFv, V domains shown)
VH: AVTLDESGGGLQTPGGALSLVCKASGFTFSSYGMFWVRQAPGKGLEFVASITNTGSYTTYGAAVEGRATISRDNGQSTVRLQLNNLRAEDTAIYYCAKTSCNNCGWSGPGYIDAWGHGTEVIVSS
VL: LTQPSSVSANLGGTVKITCSGGGNDYGWYQQKAPGSAPVTVINTNDKRPSDIPSRFSGSKSGSTATLTITGVQAEDEAVYFCGAYDSSTSADIFGAGTTLTVL
  Kd: 2.86 nM

B3: 12B3 scFv-Fc antibody (scFv, V domains shown)
VH: AVTLDESGGGLRTPRGALSLVCKASGFSFSDHGMAWVRQAPGKGLEWVAGISSGGSGTEYGAAVKGRATISRDNGQSTVRLQLNNLRAEDTGTYYCAKTTSPYCGWSGSLDYDCGAEDIDAWGHGTEVIVSS
VL: LTQPSSVSANLGETVKITCSGDSNYYGWYQQKSPGSAPVTVIYDNAKRPSNIPSRFSGSKSGSTNTLTITGVQAEDEAVYFCGGWDSDTGTFGAGTTLTVL
  Kd: 8.47 nM

B4: 12H1 scFv-Fc antibody (scFv, V domains shown)
VH: AVTLDESGGGLQTPGGTLSLVCKASGFTFSDRGMHWVRQAPGKGLEWVAGIRGDGSYTDYAPAVKGRATISRDNGQSTVRLQLNNLRAEDTATYYCAKSSYKCSTWSCRGYESDSIDAWGHGTEVIVSS
VL: LTQPSSVSANLGGTVKMTCSGGSSGYGWYQQKSPGSAPVTLIYYNDKRPSGIPSRFSGSKSDSTGTLTITGVQAEDEAVYYCGNTDSSYVGMFGAGTTLTVL
  Kd: 18.3 nM
